T1: mouse Sp35 protein expressed on transfected cells (mouse, UniProt Q9D1T0 36-614)
T1 construct: whole, on cells; also called mSp35
T1 sequence (looked up): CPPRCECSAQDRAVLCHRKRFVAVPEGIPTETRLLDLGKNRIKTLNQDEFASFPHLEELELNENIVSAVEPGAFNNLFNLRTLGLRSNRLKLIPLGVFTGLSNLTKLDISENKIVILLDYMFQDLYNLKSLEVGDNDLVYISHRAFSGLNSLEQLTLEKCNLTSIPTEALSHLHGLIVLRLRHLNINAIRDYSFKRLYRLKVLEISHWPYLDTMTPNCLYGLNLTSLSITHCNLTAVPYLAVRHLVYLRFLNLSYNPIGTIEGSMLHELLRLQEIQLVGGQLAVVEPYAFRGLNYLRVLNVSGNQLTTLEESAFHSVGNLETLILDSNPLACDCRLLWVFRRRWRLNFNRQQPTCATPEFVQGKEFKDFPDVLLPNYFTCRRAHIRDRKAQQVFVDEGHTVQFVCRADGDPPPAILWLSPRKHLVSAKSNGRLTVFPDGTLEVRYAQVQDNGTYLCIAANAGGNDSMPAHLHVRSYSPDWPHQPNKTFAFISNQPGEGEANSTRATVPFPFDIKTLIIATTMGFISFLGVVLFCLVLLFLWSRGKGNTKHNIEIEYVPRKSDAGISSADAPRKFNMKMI

T2: full-length murine Sp35 with HA tag, from lysate of transfected cells (mouse, UniProt Q9D1T0 34-614, limits assumed)
T2 construct: also called mSp35 (immunoprecipitation); not shown: HA tag
T2 sequence (looked up): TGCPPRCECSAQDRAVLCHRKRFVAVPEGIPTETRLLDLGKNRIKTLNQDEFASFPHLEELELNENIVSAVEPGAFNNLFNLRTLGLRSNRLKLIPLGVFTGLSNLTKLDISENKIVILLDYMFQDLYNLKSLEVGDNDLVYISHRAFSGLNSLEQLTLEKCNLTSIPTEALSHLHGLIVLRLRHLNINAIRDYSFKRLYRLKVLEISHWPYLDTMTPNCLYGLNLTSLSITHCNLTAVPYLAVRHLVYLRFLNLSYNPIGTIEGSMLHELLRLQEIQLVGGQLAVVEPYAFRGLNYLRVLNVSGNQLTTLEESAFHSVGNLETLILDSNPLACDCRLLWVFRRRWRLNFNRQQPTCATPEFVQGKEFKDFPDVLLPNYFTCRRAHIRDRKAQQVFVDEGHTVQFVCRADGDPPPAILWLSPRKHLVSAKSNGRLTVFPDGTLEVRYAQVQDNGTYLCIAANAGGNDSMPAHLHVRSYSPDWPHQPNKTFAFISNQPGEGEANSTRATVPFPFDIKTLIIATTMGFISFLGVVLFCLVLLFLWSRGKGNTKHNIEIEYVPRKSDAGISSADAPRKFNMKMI

T3: Sp35 fragment amino acids 34-532 of SEQ ID NO:2 fused to hinge and Fc of IgG1 (human, UniProt Q96FE5 40-538)
T3 construct: the mature proteins should be the same; not shown: hinge and Fc regions of IgG1
T3 sequence: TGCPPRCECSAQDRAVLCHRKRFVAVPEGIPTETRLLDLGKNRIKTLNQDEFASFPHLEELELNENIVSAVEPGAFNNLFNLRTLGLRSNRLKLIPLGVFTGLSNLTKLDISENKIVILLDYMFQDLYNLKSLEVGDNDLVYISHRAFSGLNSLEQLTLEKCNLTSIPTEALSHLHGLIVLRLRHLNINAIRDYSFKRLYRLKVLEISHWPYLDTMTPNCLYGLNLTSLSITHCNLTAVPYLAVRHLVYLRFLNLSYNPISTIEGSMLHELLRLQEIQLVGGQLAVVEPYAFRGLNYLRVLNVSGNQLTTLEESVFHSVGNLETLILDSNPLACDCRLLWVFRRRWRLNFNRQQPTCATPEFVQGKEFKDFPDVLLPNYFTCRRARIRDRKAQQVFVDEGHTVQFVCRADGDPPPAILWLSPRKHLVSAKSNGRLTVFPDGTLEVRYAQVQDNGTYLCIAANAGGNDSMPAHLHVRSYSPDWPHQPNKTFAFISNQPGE

T4: Sp35-Fc fusion protein (human Sp35 residues 1-532 fused to hinge and Fc of human IgG1) (human, UniProt Q96FE5 40-538)
T4 construct: also called LINGO-1-Fc; not shown: hinge and Fc region of human IgG1
T4 sequence: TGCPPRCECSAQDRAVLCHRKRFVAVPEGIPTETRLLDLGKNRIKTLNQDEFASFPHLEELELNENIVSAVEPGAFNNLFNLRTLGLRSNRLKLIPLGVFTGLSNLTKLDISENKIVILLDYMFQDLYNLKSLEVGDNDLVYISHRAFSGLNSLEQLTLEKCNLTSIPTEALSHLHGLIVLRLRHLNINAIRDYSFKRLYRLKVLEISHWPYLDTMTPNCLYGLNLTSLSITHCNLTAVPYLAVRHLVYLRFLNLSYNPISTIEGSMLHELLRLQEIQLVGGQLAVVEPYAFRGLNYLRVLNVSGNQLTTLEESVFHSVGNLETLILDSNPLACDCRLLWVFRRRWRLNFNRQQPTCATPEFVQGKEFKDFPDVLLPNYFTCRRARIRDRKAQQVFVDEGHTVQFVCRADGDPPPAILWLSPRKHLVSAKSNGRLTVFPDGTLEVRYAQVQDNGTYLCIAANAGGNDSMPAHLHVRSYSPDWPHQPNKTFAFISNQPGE

T5: full-length human Sp35 with N-terminal hemagglutinin (HA) tag, from lysate of transfected COS-1 cells (human, UniProt Q96FE5 40-620)
T5 construct: also called huSp35 (immunoprecipitation); not shown: HA tag at the N-terminus
T5 sequence: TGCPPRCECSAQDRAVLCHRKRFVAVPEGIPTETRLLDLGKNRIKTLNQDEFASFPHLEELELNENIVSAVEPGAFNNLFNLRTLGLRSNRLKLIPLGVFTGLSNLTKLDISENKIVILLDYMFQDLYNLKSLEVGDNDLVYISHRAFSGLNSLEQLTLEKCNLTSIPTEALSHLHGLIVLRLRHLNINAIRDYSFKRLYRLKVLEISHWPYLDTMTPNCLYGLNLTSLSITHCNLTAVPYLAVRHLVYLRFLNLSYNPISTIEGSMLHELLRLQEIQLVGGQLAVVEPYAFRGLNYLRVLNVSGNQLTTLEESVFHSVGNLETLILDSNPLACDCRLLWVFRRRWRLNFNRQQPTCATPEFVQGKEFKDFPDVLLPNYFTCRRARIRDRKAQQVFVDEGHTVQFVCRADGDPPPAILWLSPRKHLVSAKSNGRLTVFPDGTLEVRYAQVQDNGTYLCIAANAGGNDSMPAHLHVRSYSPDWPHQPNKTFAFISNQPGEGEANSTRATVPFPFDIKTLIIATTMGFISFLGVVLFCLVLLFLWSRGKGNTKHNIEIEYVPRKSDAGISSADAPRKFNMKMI

T6: Sp35 polypeptide consisting of amino acids 34-534 of human Sp35 (human, UniProt Q96FE5 40-540)
T6 construct: No fusion partner stated
T6 sequence: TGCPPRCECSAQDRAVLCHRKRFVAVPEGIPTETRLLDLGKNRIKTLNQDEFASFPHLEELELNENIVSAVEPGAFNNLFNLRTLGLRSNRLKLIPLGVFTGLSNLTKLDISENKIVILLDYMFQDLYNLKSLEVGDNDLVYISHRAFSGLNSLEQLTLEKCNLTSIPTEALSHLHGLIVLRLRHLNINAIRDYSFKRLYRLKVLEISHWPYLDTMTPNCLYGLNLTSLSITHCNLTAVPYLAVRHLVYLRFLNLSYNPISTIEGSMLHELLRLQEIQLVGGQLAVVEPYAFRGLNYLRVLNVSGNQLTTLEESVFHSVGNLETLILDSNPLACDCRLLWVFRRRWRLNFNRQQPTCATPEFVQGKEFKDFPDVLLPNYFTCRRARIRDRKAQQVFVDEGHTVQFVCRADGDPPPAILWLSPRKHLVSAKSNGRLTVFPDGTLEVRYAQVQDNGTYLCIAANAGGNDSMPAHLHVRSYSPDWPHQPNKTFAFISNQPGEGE

T7: mouse Sp35 protein (form in the assay not stated) (mouse, UniProt Q9D1T0 36-532, limits assumed)
T7 construct: also called mSp35; murine Sp35
T7 sequence (looked up): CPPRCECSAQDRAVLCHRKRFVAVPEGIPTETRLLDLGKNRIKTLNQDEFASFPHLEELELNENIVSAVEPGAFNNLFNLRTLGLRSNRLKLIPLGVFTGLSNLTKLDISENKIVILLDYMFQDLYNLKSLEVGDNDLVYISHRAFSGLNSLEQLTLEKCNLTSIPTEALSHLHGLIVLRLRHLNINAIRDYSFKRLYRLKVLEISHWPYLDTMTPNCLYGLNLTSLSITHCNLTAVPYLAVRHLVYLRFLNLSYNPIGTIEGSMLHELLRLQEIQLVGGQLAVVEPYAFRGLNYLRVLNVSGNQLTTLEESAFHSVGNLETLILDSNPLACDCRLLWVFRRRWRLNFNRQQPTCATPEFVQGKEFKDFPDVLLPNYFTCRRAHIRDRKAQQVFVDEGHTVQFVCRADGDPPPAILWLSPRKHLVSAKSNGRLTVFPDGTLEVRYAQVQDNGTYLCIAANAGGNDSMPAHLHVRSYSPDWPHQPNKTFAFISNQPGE


Key:
[1] = biological target: human Sp35 protein expressed on transfected cells (human) (UniProt Q96FE5); assay: FACS on live human LINGO-1 (Sp35) transfected 293 cells, PE-labelled secondary antibody alone (no primary antibody), FL2-H
[2] = biological target: T1, mouse Sp35 protein expressed on …; assay: FACS
Source text: To further characterize the binding properties of hybridoma-derived anti-Sp35 mAbs 1A7 and 2F3 produced as described in Example 3, binding to both fixed and live COS-7 or 293 cells expressing mouse or human Sp35 was compared.

[3] = biological target: T2, full-length murine Sp35 with HA tag, …; assay: immunoprecipitation
Procedure: (§1) To perform the immunoprecipitation, COS-1 cells expressing Sp35, fused to a hemaglutinin (HA) tag on the N-terminus, were produced by transiently transfecting COS-1 cells with a DNA construct which expresses the full-length Sp35 protein with an HA tag. Cells were harvested 48 hr after transfection and were lysed in 1 ml lysis buffer (50 mM HEPES, pH 7.5, 150 mM NaCl, 1.5 mM MgCl₂, 1 mM EGTA, 1% Triton X-100 and 10% glycerol) for 30 min at 4° C. After centrifugation at 14,000×g for 15 min, the supernatants were incubated with ProteinA/G-Sepharose beads (Santa Cruz) at 4° C. for 1 hr, and then incubated at 4° C. for 1 hr with either the 1A7 or the 2F3 anti-Sp35 murine monoclonal antibodies. The beads were washed 3 times with lysis buffer, boiled in Laemmli sample buffer, subjected to 4-20% SDS-PAGE, and analyzed by Western blotting using an antibody which recognizes the HA tag. As shown on the SDS-PAGE gel, monoclonal antibodies 1A7 and 2F3, immunoprecipitated human and murine Sp35 (FIG. 1). […] Similarly, monoclonal antibodies 1G7, 2B10, 2F3, 3P4C2.2D2, 3P4C8.2G9, Li01, Li03, Li05, Li06, Li07, Li08, Li11 and Li12 immunoprecipitate human or mouse or human and mouse Sp35 (See Table 3B). Additionally, Li08 immunoprecipitates AP-Sp35 and monoclonal antibodies 1B6.4 and 3E3.1 immunoprecipitate endogenous Sp35 (See Table 3B).

[4] = biological target: T3, Sp35 fragment amino acids 34-532 of SEQ …; assay: ELISA
[5] = biological target: T4, Sp35-Fc fusion protein (human Sp35 …); assay: ELISA
[6] = biological target: T5, full-length human Sp35 with N-terminal …; assay: immunoprecipitation
Procedure: as §1

[7] = biological target: T6, Sp35 polypeptide consisting of amino …; assay: similar experiments (ELISA)
[8] = biological target: T7, mouse Sp35 protein (form in the assay …); assay: method not stated (Example 5); KD determination (Example 5, method not stated), murine Sp35

binding result [4] | binding result [5] | binding result [6] | binding result [7] | Molecule | other results
– | – | – | – | 2nd Ab only (antibody) | (FL2-H) Geom. Mean [1]: 6.6; (FL2-H) Mean [1]: 8.78; (FL2-H) Median [1]: 6.76; fraction of cells in the marker gate (FL2-H histogram) [1]: 5.52
– | – | – | – | 2F3 (antibody, V domains shown, murine hybridoma monoclonal antibody; also called monoclonal antibody 2F3; MAb 2F3) VH: EVKLEESGGGLVQPGGSMKLSCAASGFTFSDAWLDWVRQSPEKGLEWVAEIRSKANNHATNYAESVKGRFTISRDDSKSSVYLQMNSLRAEDTGIYFCTPSFAYWGQGTTVTVSS VL: DIQMTQSPASLSASVGETVTITCRASGNIYNYLAWFQQKQGKSPQLLVYNAKTLPDGVPSRFSGSGSGTQYFLKINSLQPEDFGSYYCQHFWAIPYTFGGGTKLEIKR | binding result [2]: binds; binding result [3]: binds
binds | binds | binds | binds | 3P1D10.2C3 (antibody, V domains shown, murine hybridoma monoclonal antibody) VH: QVQLQQSGAELARPGASVKLSCRASGYTFTSSWTQWVKQRPGQGLEWIGAIYPGDGDTRYTQKFKGKATLTADKSSSTAYMQLSSLASEDSAVYYCARHNSYGMDYWGQGTSVTVSS VL: DIVMTQSPSSLTVTAGEKVTMSCKSSQSLLNSGNQKNYLTWYQQKPGQPPKLLIYWASTRESGVPDRFTGSGSGTDFTLTINSVQAEDLAVYYCQNDYSYPLFTFGSGTKLEIR | –
binds | binds | binds | binds | 3P1E11.3B7 (antibody, V domains shown) VH: QVQLQQSGAELARPGASVKLSCRASGYTFTSSWTQWVKQRPGQGLEWIGAIYPGDGDTRYTQKFKGKATLTADKSSSTAYMQLSSLASEDSAVYYCARHNSYGMDYWGQGTSVTVSS VL: DIVMTQSPSSLTVTAGEKVTMSCKSSQSLLNSGNQKSYLTWYQQKPGQPPKLLIYWASTRESGVPDRFTGSGSGTDFTLTINSVQAEDLAVYYCQNDYSYPLFTFGSGTKLEIR | –
– | – | – | – | 1A7 (antibody, V domains shown, murine hybridoma monoclonal antibody; also called monoclonal antibody 1A7; MAb 1A7) VH: QVQLVQSGPELKKPGETVKISCKASGYTFTNYGMNWVKQAPGKGLKWMGWINTDTGEPTYTEDFQGRFAFSLETSASTVYLQFNNLKNEDTATYFCAREGVHFDYWGQGTTVTVSS VL: QIVLTQSPAIMSASPGEKVTMTCSASSSVSYMHWYQQKSGTSPKRWIYDTSKLASGVPARFSGSGSGTSYSLTISSMEAEDAATYYCQQWSSNPFTFGSGTKLEIK | Kd [8]: 20 µM

Source: patent US20140199315A1 (Biogen, published 2014)
